Numbering of substitutions follows the chain as printed.
T1: human EphA8 (Homo sapiens, UniProt P29322)
T1 construct: a protein of the extracellular region of each human Eph receptor fused with the SEAP protein and the His tag; made in house; host or cells: Expi293F cells (culture supernatant)
T1 sequence (P29322 28-542 limits assumed): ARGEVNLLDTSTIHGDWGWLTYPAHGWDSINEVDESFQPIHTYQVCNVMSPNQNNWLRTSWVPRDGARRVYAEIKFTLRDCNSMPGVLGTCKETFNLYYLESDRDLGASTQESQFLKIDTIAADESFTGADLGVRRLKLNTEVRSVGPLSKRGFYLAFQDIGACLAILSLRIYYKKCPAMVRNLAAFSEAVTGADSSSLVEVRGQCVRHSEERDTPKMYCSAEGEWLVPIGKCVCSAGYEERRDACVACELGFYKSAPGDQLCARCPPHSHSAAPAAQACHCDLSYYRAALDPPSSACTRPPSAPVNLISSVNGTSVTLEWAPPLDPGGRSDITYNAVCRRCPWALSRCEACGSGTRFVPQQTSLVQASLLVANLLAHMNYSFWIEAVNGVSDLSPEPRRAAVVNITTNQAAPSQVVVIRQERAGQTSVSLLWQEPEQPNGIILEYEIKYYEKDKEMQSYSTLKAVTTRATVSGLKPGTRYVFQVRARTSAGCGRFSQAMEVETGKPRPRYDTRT

T2: human EphB1 (Homo sapiens, UniProt P54762)
T2 construct: a protein of the extracellular region of each human Eph receptor fused with the SEAP protein and the His tag; made in house; host or cells: Expi293F cells (culture supernatant)
T2 sequence (P54762 18-540 limits assumed): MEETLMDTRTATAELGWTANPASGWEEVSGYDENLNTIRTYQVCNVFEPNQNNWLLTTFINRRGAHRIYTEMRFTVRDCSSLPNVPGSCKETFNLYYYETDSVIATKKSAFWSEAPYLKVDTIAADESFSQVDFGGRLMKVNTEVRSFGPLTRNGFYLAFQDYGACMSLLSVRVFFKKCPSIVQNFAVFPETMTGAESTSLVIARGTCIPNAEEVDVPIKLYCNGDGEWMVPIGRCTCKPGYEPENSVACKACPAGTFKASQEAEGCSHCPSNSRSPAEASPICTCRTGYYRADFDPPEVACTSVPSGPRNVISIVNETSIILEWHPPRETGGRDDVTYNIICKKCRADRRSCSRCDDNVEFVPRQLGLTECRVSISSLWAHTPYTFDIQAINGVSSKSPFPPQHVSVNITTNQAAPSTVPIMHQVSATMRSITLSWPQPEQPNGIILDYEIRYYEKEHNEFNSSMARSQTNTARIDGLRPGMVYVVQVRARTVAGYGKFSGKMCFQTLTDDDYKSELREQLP

T3: human EphA1 (Homo sapiens, UniProt P21709)
T3 construct: a protein of the extracellular region of each human Eph receptor fused with the SEAP protein and the His tag; made in house; host or cells: Expi293F cells (culture supernatant)
T3 sequence (P21709 26-547 limits assumed): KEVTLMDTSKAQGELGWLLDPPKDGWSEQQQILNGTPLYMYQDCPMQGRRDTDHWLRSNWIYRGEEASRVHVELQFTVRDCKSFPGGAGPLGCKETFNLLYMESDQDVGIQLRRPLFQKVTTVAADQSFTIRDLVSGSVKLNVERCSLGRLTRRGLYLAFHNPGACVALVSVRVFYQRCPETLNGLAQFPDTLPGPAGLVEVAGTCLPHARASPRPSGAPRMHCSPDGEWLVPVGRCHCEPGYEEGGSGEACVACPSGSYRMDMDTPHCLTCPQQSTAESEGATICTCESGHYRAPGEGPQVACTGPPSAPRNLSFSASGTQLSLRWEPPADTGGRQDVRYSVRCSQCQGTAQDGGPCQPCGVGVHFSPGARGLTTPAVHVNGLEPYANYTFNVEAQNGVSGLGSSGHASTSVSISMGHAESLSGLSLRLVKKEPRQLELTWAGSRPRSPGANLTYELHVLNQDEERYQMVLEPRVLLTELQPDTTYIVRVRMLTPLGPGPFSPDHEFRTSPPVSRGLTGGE

B1: 69 (antibody, V domains shown)
VH: QIQLVQSGSELKKPGASVKVSCKASGYTFTDYSMHWVRQAPGQGLKWMGWINTETGEPTYADDFKGRFVFSLDTSVSTAYLQISSLKAEDTAVYYCARIPLYYYGSRYWYFDVWGQGTTVTVSS
VL: DIQMTQSPSSLSASVGDRVTITCRASENIYRNLAWYQQKPGKAPKLLVYAATNLADGVPSRFSGSGSGTDYTLTISSLQPEDFATYYCQHFWGTPWTFGQGTKVEIK
modifications: synthetic humanized antibody heavy chain variable region sequence; synthetic humanized antibody light chain variable region sequence
B2: 84 (antibody, V domains shown)
VL: B1 VL with V48L, P80S
VH: B1 VH with I2V, K46E
modifications: constant regions without entry; synthetic humanized antibody light chain variable region sequence; synthetic humanized antibody heavy chain variable region sequence
B3: 85 (antibody, V domains shown)
VL: B1 VL with V48L, P80S
VH: B1 VH with I2V
modifications: constant regions without entry; synthetic humanized antibody light chain variable region sequence; synthetic humanized antibody heavy chain variable region sequence
B4: 81 (antibody, V domains shown)
VL: B1 VL with V48L, P80S
VH: B1 VH with I2V, K46E, D62Q, D63G, K65T
modifications: constant regions without entry; synthetic humanized antibody light chain variable region sequence; synthetic humanized antibody heavy chain variable region sequence
B5: 83 (antibody, V domains shown)
VL: B1 VL with V48L, P80S
VH: B1 VH with D62Q, D63G, K65T
modifications: constant regions without entry; synthetic humanized antibody light chain variable region sequence; synthetic humanized antibody heavy chain variable region sequence
B6: 82 (antibody, V domains shown)
VL: B1 VL with V48L, P80S
VH: B1 VH with I2V, D62Q, D63G, K65T
modifications: constant regions without entry; synthetic humanized antibody light chain variable region sequence; synthetic humanized antibody heavy chain variable region sequence

What follows are molecules tested against T1, human EphA8 (assay: Selectivity ELISA of humanized antibodies for human Eph receptor). Conditions: coated protein 1 nM.
Format: binding
Method in brief: (§1)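 Steps: coat anti-His antibody; block, then 1% BlockAce overnight at 4 °C; add Eph receptor extracellular region-SEAP-His (1 nM final) 1 h; add humanized antibody 1 h; add HRP anti-IgG 1 h; develop TMB; stop with acid; read 450 nm.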

hEphA8-SEAP-: absorbance at 450 nm, percentage with respect to hEphA4-SEAP-His as 100% [%]	Molecule
5.5	B1
5.3	B2
5.5	B3
5.2	B4
6.0	B5
5.8	B6

The molecules below were run against T2, human EphB1 in the same assay as above. Conditions: coated protein 1 nM.
Format: binding
Method in brief: as §1

hEphB1-SEAP-: absorbance at 450 nm, percentage with respect to hEphA4-SEAP-His as 100% [%]	Molecule
5.6	B1
5.2	B2
5.0	B3
4.9	B4
5.6	B5
5.4	B6

What follows are molecules tested against T3, human EphA1 in the same assay as above. Conditions: coated protein 1 nM.
Format: binding
Method in brief: as §1

hEphA1-SEAP-: absorbance at 450 nm, percentage with respect to hEphA4-SEAP-His as 100% [%]	Molecule
5.7	B1
5.2	B2
5.0	B3
4.4	B4
5.7	B5
5.4	B6
